Measured values from publication PMC6613617, “Human DNA polymerase delta requires an iron–sulfur cluster for high-fidelity DNA synthesis” (Life Science Alliance, 2019).

Legend:
[1] = molecular target: T1, N-terminally Flag-tagged POLD1 (catalytic subunit of human DNA polymerase delta), wild type (human, UniProt P28340 1-1107); assay: pull-down; Flag-pull down (Flag-M2 agarose) from lysate of Sf9 cells co-expressing Flag-POLD1 variant, POLD2, POLD3, POLD4 and untagged PCNA; 50 mM Tris-HCl pH 8.0, 200 mM NaCl, 0.25% NP-40, 4°C; SDS-PAGE with protein stain; details: partners not purified
T1 construct: DNA polymerase delta catalytic subunit POLD1/p125, human; also called p125; Flag-POLD1; source: Sf9 insect cells, baculovirus co-infection, in lysate; Flag-purified (Flag-M2 agarose, 3x Flag peptide elution); not shown: Flag, N-terminal, kept
T1 sequence (looked up): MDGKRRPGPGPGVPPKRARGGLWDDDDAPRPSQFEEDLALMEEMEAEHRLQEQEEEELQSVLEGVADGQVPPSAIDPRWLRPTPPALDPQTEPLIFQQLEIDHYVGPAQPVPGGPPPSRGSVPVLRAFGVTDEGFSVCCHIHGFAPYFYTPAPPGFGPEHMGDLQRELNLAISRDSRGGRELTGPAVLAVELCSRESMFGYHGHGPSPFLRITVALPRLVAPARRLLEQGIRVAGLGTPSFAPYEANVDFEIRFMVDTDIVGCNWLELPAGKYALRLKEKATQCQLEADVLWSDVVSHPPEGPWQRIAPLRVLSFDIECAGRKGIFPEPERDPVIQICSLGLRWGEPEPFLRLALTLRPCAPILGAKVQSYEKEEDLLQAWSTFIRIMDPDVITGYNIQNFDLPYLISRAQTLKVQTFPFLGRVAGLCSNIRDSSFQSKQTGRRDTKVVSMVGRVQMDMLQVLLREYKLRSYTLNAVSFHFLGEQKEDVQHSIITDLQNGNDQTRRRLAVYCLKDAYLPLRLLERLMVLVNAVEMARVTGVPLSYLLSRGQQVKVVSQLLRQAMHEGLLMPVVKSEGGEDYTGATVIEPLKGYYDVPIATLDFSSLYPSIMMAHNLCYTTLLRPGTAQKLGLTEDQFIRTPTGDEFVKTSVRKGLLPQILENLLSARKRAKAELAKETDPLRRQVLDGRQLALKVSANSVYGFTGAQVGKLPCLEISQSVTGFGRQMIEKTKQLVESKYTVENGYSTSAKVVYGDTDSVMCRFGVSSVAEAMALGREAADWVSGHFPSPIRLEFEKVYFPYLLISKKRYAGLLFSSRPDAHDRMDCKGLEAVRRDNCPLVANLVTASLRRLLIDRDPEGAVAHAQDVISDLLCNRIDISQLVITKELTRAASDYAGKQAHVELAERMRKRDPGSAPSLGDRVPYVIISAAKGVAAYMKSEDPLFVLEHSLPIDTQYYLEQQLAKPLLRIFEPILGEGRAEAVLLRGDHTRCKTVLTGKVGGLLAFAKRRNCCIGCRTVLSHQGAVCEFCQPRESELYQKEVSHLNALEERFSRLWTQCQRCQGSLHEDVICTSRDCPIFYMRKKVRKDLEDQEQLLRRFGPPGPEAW

[2] = molecular target: T2, N-terminally Flag-tagged POLD1 C1076S (human, UniProt P28340 1-1107, C1076S); assay: as above; details: partners not purified
T2 construct: DNA polymerase delta catalytic subunit POLD1/p125, human; variant made by site-directed mutagenesis; also called CS; Pol δ-CS (bait subunit); source: Sf9 insect cells, baculovirus co-infection, in lysate; Flag-purified (Flag-M2 agarose, 3x Flag peptide elution); not shown: Flag, N-terminal, kept
T2 sequence (looked up): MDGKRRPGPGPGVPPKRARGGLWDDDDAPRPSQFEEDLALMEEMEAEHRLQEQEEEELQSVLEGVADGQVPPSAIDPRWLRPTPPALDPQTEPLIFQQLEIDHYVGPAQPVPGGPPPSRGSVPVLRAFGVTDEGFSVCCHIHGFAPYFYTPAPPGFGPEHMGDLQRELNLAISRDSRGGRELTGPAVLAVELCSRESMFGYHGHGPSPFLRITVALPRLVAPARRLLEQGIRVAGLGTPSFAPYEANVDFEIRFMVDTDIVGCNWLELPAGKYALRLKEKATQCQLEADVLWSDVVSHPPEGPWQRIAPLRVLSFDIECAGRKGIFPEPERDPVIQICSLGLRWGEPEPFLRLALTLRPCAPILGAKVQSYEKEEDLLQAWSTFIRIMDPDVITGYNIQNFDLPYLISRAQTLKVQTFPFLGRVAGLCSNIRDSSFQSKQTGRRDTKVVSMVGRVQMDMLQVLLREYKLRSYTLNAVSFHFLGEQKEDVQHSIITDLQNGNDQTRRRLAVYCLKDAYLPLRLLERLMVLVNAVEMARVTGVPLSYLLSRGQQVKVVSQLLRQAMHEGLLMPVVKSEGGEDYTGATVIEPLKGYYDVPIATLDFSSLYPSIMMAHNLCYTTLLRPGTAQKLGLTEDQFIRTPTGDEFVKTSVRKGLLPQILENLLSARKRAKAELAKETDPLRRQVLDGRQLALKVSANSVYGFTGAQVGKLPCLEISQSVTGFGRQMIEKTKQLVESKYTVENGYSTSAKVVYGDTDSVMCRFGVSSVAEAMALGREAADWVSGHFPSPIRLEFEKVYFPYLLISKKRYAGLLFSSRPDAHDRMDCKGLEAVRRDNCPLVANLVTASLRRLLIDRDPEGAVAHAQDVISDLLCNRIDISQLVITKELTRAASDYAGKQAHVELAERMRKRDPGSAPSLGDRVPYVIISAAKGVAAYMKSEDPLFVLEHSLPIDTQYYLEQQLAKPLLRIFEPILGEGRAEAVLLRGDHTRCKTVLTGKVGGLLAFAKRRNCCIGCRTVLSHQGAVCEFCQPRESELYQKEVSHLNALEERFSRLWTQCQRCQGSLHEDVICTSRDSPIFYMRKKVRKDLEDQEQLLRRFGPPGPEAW

Binder | binding result [1] | binding result [2]
POLD3 (accessory subunit of human DNA polymerase delta), untagged (natural protein, UniProt Q15054 1-466, looked up, DNA polymerase delta subunit 3 POLD3/p66, human; Expressed from a cassette with self-cleaving T2A peptides; T2A remnants probably stay on its ends and differ between the two cassettes (my surmise); also called p66; source: Sf9 insect cells, baculovirus co-infection (POLD2-T2A-POLD3-T2A-POLD4 or POLD2-T2A-POLD3 cassette), in lysate; co-purified with Flag-POLD1) MADQLYLENIDEFVTDQNKIVTYKWLSYTLGVHVNQAKQMLYDYVERKRKENSGAQLHVTYLVSGSLIQNGHSCHKVAVVREDKLEAVKSKLAVTASIHVYSIQKAMLKDSGPLFNTDYDILKSNLQNCSKFSAIQCAAAVPRAPAESSSSSKKFEQSHLHMSSETQANNELTTNGHGPPASKQVSQQPKGIMGMFASKAAAKTQETNKETKTEAKEVTNASAAGNKAPGKGNMMSNFFGKAAMNKFKVNLDSEQAVKEEKIVEQPTVSVTEPKLATPAGLKKSSKKAEPVKVLQKEKKRGKRVALSDDETKETENMRKKRRRIKLPESDSSEDEVFPDSPGAYEAESPSPPPPPSPPLEPVPKTEPEPPSVKSSSGENKRKRKRVLKSKTYLDGEGCIVTEKVYESESCTDSEEELNMKTSSVHRPPAMTVKKEPREERKGPKKGTAALGKANRQVSITGFFQRK | binds | binds
POLD2 (accessory subunit of human DNA polymerase delta), untagged (natural protein, DNA polymerase delta subunit 2 POLD2/p50, human; Expressed from a cassette with self-cleaving T2A peptides; A T2A remnant probably stays on its C-terminus (my surmise); also called p50; source: Sf9 insect cells, baculovirus co-infection (POLD2-T2A-POLD3-T2A-POLD4 or POLD2-T2A-POLD3 cassette), in lysate; co-purified with Flag-POLD1) not shown |  | binds
POLD4 (accessory subunit of human DNA polymerase delta), untagged (natural protein, UniProt Q9HCU8 1-107, looked up, DNA polymerase delta subunit 4 POLD4/p12, human; Expressed from a cassette with self-cleaving T2A peptides; A residue of the T2A probably stays on its N-terminus (my surmise); also called p12; source: Sf9 insect cells, baculovirus co-infection (POLD2-T2A-POLD3-T2A-POLD4 cassette), in lysate; co-purified with Flag-POLD1) MGRKRLITDSYPVVKRREGPAGHSKGELAPELGEEPQPRDEEEAELELLRQFDLAWQYGPCTGITRLQRWCRAKQMGLEPPPEVWQVLKTHPGDPRFQCSLWHLYPL | binds | binds
